The assay concerns the target BG505 SOSIP.664. Kind of assay: BLI. A general note: BLI is a label-free optical method that tracks binding on a fibre tip over time.

B1: PGT122 Fab (Fab, V domains shown)
VH: QVHLQESGPGLVKPSETLSLTCNVSGTLVRDNYWSWIRQPLGKQPEWIGYVHDSGDTNYNPSLKSRVHLSLDKSKNLVSLRLTGVTAADSAIYYCATTKHGRRIYGVVAFKEWFTYFYMDVWGKGTSVTVSS
VL: APTFVSVAPGQTARITCGEESLGSRSVIWYQQRPGQAPSLIIYNNNDRPSGIPDRFSGSPGSTFGTTATLTITSVEAGDEADYYCHIWDSRRPTNWVFGEGTTLIVL
The molecule B1 came in with a dissociation constant (Kd) of 34.8 nM and an off-rate constant (koff) of 0.00085 s⁻¹.

Broadly, the Kd is a measure of binding affinity in units of concentration. As usually defined, the koff is the first-order rate constant of dissociation. A low value points to slow dissociation.

The values above are taken from article PMC5955915 (2018).
